Tests used:
[1] = molecular target: native ArtinM (jArtinM) (Artocarpus heterophyllus); assay: SDS-PAGE of undenatured sample; undenatured protein (no thermal dissociation) loaded on 12.5 % SDS-PAGE, 3 μg per lane, Coomassie blue G-250
[2] = molecular target: recombinant ArtinM (rArtinM) (Artocarpus heterophyllus); assay: AUC; sedimentation velocity at 50,000 rpm, 20 °C, c(S) fit in SEDFIT; confirmed by sedimentation equilibrium

| stoichiometry N [1] | stoichiometry N [2] | Substance |
| --- | --- | --- |
| 4 |  | native ArtinM (jArtinM) (natural protein) |
|  | 3 | recombinant ArtinM (rArtinM) (natural protein) |

Reference: paper PMC4932716
